Measured values published in article PMC7733947, “The Key Glycolytic Enzyme Phosphofructokinase Is Involved in Resistance to Antiplasmodial Glycosides” (mBio, 2020).

System: Nc1ncnc2c1ncn2[C@@H]1O[C@H](COP(=O)(O)O)[C@@H](O)[C@H]1O
Assay: purified protein

## PfHAD1 (Plasmodium falciparum 3D7)
  Km: 4.11 ± 0.88 mM

## PfHAD2 (Plasmodium falciparum 3D7)
  Km: 4.09 ± 0.55 mM
